A short description of the data set: retention of insulin bioactivity when delivered in PLGA. To be noted: delivered in poly(lactide-co-glycolide) (PLGA). An excerpt: Insulin is a hormone which improves glycolic metabolism and ATP production. Insulin also may act as a vasodilator, an anti-inflammatory, and an antiplatelet agent. Thus, insulin acts by several mechanisms to decrease infarct size by reducing inflammation, slowing the rate of ischemic necrosis, decreasing circulating levels of FFA and myocardial FFA uptake, restoring myocardial glycogen stores and improving contractile function. The insulin can be human, non-human, or synthetic and can be complete or fragments. Preferably the insulin is a stable, short acting form which is resistant to radiation. Insulin in its crystalline form may be used for improved resistance to radiation. When the insulin is combined with a polymer an agent may be added to preserve bioactivity. […] For substantially longer administration periods, an antacid or other agent may be used to maintain a required pH for continued bioactivity from a PLGA matrix.
Protein or peptide drugs can be human, non-human, recombinant or synthetic and can be the full length native form or an active fragment thereof. Preferably the insulin is a stable, short acting form which is resistant to radiation. Insulin in its crystalline form may be used for improved resistance to radiation. When the insulin is combined with a polymer, an agent may be added to preserve bioactivity. […]

On to insulin, for which the “period over which bioactivity is retained” value is “at least 24 hours”.

The values are drawn from patent publication US20070269486A1, “Methods and Devices for Reducing Tissue Damage After Ischemic Injury” (priority 2005, published 2007).
